Reference: patent US20240174744A1 (SCIRHOM, published 2024)

Columns and labels:
[1] = target: T1, miR2-FL-WT-T7 (mouse iRhom2 full length wild type C-terminally tagged with 3 consecutive copies of the T7 … (mouse, UniProt Q80WQ6 1-827)); assay: FACS on MEF-DKO-miR2-FL-WT-T7 cells
T1 construct: also called mouse iRhom2 variant expressed by MEF-DKO-miR2-FL-WT-T7 cells
T1 sequence: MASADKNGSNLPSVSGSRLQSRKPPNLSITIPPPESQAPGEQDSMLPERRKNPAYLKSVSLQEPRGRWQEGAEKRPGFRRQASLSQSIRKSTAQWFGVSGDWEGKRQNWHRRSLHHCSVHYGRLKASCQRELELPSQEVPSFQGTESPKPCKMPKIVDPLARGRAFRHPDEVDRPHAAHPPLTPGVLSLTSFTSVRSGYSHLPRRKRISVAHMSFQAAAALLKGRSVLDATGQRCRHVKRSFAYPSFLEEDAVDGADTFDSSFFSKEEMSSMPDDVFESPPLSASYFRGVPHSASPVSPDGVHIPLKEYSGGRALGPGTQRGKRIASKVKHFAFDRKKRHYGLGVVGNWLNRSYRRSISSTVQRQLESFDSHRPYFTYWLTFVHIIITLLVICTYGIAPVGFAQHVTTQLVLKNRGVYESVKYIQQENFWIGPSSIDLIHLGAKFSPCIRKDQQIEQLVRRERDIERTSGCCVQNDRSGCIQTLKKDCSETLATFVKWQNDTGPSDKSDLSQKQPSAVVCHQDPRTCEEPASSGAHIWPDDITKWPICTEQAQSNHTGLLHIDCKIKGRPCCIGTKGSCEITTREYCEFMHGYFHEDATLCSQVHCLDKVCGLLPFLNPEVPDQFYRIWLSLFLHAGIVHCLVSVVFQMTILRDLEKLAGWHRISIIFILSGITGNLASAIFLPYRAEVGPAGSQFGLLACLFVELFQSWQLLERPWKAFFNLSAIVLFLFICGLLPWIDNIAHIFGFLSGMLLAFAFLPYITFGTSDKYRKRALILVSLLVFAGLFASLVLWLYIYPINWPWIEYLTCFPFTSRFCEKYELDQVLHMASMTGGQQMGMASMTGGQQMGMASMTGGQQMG

[2] = target: T2, hiR2-FL-I566E-T7 (human iRhom2 full length I566E, 3 x T7 tag) (human, UniProt Q6PJF5 1-856); assay: FACS on MEF-DKO-hiR2-FL-I566E-T7 cells
T2 sequence: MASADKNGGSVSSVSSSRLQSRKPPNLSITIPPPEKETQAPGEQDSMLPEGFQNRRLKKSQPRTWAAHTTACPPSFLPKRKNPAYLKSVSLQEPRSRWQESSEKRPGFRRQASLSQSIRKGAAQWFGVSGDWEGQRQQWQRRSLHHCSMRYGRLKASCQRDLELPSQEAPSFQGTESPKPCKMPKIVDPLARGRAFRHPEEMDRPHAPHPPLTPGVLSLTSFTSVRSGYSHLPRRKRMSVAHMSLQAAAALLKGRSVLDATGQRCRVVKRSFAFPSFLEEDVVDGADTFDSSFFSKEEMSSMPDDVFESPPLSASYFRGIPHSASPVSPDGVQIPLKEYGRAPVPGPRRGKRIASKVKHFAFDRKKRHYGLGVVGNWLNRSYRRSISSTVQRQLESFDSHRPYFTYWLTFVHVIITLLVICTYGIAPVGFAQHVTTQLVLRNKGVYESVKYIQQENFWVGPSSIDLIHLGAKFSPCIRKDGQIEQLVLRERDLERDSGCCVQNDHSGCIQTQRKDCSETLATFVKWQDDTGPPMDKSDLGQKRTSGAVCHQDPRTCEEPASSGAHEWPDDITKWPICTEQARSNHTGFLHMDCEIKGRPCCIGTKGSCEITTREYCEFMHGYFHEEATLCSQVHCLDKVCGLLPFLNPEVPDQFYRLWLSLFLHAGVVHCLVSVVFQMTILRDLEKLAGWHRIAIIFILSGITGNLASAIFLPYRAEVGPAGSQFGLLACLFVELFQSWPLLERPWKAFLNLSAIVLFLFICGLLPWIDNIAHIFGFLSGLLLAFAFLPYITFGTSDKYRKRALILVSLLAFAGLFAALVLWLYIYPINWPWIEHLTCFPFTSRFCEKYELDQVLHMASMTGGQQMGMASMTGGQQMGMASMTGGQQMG

[3] = target: T1, miR2-FL-WT-T7 (mouse iRhom2 full length …); assay: FACS, MEF-DKO-miR2-FL-WT-T7 cells
Protocol: In brief, immortalized MEF-DKO-EV control cells, MEF-DKO-hiR2-FL-WT-T7 cells and MEF-DKO-miR2-FL-WT-T7 cells were harvested with 10 mM EDTA in PBS, washed and resuspended in FACS buffer (PBS, 3% FBS, 0.05% sodium azide), and seeded in Nunc U-bottom 96-well plates (Thermo Fisher Scientific, USA) at approximately 3×10⁵ cells per well. To pellet cells and remove supernatants, the plates were centrifuged at 1,500 rpm and 4° C. for 3 minutes. For primary staining, cells were resuspended in 100 μl per well of either FACS buffer alone (controls), mouse monoclonal anti-T7 IgG (Merck Millipore, USA) at 3 μg/ml FACS buffer or the purified antibodies 3, 5, 16, 22, 34, 42, 43, 44, 48, and 50 of the present disclosure also at 3 μg/ml FACS buffer and incubated on ice for 1 hour. Afterwards, plates were centrifuged at 1,500 rpm and 4° C. for 3 minutes and washed twice with 200 μl per well of FACS buffer. For secondary staining, cells were spun down and resuspended in 100 μl per well of PE-conjugated goat anti-mouse IgG F(ab′)2 detection fragment (Dianova, Germany) diluted 1:100 in FACS buffer. Protected from light, the cell suspensions were incubated on ice for 1 hour. […] Finally, cells were resuspended in 150 μl per well of FACS buffer and analyzed using a BD Accuri™ C6 Plus flow cytometer (Becton Dickinson, Germany).

B1: antibody 3 (antibody, V domains shown)
VH: QVTLKESGPGILQPSQTLSLTCSFSGFSLTTFAMGIGWVRQPSGKGLEWLAHIWWDGEKYNNPVLKSRLTISKDTSKNQVFLRIANVDTPDTATYYCARISSIYYIIDNWGQGTSVTVSS
VL: DIVLTQSPATLSVTPGHSVSLSCRASQSISNNLHWYQKKSHESPRLLIKYVSQSISGIPSRFSGSGSGTDFTLSINSVETEDFGMYFCQQSYNWPLTFGAGTKLELK
notes: Mouse IgG, kappa light chain; also called clone #3; purified antibody 3
B1: no binding (tested: 3 µg/ml) [1].

B2: antibody 5 (antibody, V domains shown)
VH: QVTLKESGPGILQPSQTLSLTCSFSGFSLSTFGMGVGWIRQPSGKGLEWLAHIWWDDEKYYNSALKSRLTISKATSKNQAFLKIANVDTADTATYYCARISNYGSNYWYFNVWGTGTTVTVSS
VL: QVVLTQSPALMSASPGEKVTMTCSAGSSVSCMYWYQQKPGSSPRVLIYDTSNLASGVPARFTGSGSGTSYSLTISRMEAEDAASYYCQQWNSYPLTFGAGTKLELK
notes: Mouse IgG, kappa light chain; also called clone #5; purified antibody 5
B2: no binding (tested: 3 µg/ml) [2].

B3: antibody 48 (antibody, V domains shown)
VH: QVQLQQSGTELVRPGTSVKVSCKASGYAFTNYLIEWVKQRPGQGLEWIGVINPGSGFTKYNEKFKGKATLTADKSSSTVYMHLSSLTSEDSAVYFCARGLYRAMDYWGQGTSVTVSS
VL: DIQMTQSPASQSASLGESVTITCLASQTIATWLAWYQQKPGKSPQLLIYGATTLADGVPSRFSGGGSGTKFSFKISSLQAEDFVSYYCQQLYSTPYTFGGGTKLEIK
notes: Mouse IgG, kappa light chain; also called clone #48; purified antibody 48
B3: no binding (tested: 3 µg/ml) [3].
